Laboratory results published in patent US20240255522A1 (published 2024).
Where no end group is shown, it is not given here.

Assays:
[1] = target: HLA-DRB1*11:01 MHCII molecule (human); assay: saturation binding ELISA
[2] = target: HLA-DRB1*09:01 MHCII molecule (human); assay: saturation binding ELISA
[3] = target: HLA-DRB1*08:01 MHCII molecule (human); assay: saturation binding ELISA
[4] = target: HLA-DRB1*15:01 MHCII molecule (human); assay: saturation binding ELISA
[5] = target: HLA-DRB1*01:01 MHCII molecule (human); assay: saturation binding ELISA
[6] = target: HLA-DRB1*04:01 MHCII molecule (human); assay: saturation binding ELISA
[7] = target: HLA-DRB1*11:01 MHCII molecule (human); assay: saturation binding ELISA; pH 5
[8] = target: HLA-DRB1*09:01 MHCII molecule (human); assay: saturation binding ELISA; pH 5
[9] = target: HLA-DRB1*08:01 MHCII molecule (human); assay: saturation binding ELISA; pH 5
[10] = target: HLA-DRB1*15:01 MHCII molecule (human); assay: saturation binding ELISA; pH 5
[11] = target: HLA-DRB1*01:01 MHCII molecule (human); assay: saturation binding ELISA; pH 5
[12] = target: HLA-DRB1*04:01 MHCII molecule (human); assay: saturation binding ELISA; pH 5
[13] = target: HLA-DRB1*01:01 MHCII molecule (human); assay: saturation binding ELISA; pH 5; second sample

## PVSKMRMATPLLMQA (also: biotinylated, position not given here) [biotinylated high affinity huCLIP]
[1]
  Kd: 24.5 nM
[2]
  Kd: 510 nM
[3]
  Kd: 14.4 nM
[4]
  Kd: 109 nM
[5]
  Kd: 6.09 nM
[6]
  Kd: 183 nM
[7]
  Kd: 30.9 nM
[8]
  Kd: 380 nM
[9]
  Kd: 16.8 nM
[10]
  Kd: 87.9 nM
[11]
  Kd: 7.1 nM
[12]
  Kd: 200 nM
[13]
  Kd: 8.7 nM
